# According to the RNAGym collection of RNA variant scans (doi:10.7554/elife.90254):
# B1: OR4K15 (parent)
# chain: GUUAACGGUCAUAGGCCAUGGAAACUAGGAGCACCAUUUCGCUGCCAGUGAAGAAAUGAACAAAGAAAAUCUGGGCCAGGCAGGCAUCAAAAGAAAUAGUCUUGCGCUCAACCAGAAAGUCUGUAAUCAUUUUAAGGGUA
# Variants of: B1
# Experiment: self-cleavage, relative activity (ratio to wild type); higher = more cleavage; in vitro, sequencing; the parent is a self-cleaving ribozyme
row,Variant,self-cleavage
1,U3C A64G,0.7
2,A4G U38C,1.15
3,A4G A55G,1.13
4,U3C A89C,0.91
5,A4G G15C,1.28
6,A5G A62G,0.59
7,A4U U108C,0.09
8,U3A U122C,1.35
9,A4G A60U,1.76
10,U2G A89G,0.3
11,A5G A67C,0.63
12,A5G A67G,0.89
13,U3C A33G,0.79
14,U2C U39A,1.17
15,U2C U39G,1.43
16,U2C U39C,0.7
17,A5C C105U,0.08
18,U3C A116G,0.68
19,A5G A118C,1
20,A4G C10U,0.76
21,U3A A96G,1.18
22,A5G U12C,1.02
23,A5G A126G,0.69
24,A4C A62U,0.93

row,Variant,self-cleavage
1,A4C A62G,0.88
2,A5G G48A,0.77
3,U3G U9A,0.99
4,U3C U26A,1.76
5,A5G A30U,1.14
6,U3C U43A,1.31
7,U3C A62G,0.96
8,U3C A62U,1.22
9,U2C U43A,1
10,U2C U43C,1.57
11,A5U A18G,1.83
12,A4G U120A,1.62
13,U3A U103C,0.76
14,A4G A89G,1.34
15,U2C U12G,0.39
16,U3C A95G,1.02
17,A4U U127C,1.34
18,A5G A68G,0.89
19,U3C A54C,0.51
20,U3C A36G,1.39
21,U3C A36U,1.33
22,U3G U26C,0.94
23,A5G G15U,0.82
24,A4G G41A,1.43

row,Variant,self-cleavage
1,A4G A92G,1.18
2,A4G A92U,1.44
3,A5G U57C,0.68
4,A4G A110G,0.4
5,U3A A95G,1.42
6,A5G A24U,0.83
7,A5G A24G,1.14
8,U3A A36U,1.61
9,U3A A36G,0.85
10,U3C U39C,1.15
11,A5G A94U,0.8
12,A5G A94G,1
13,A5U A27G,2.05
14,A4G A90G,1.11
15,U2C U131A,1.39
16,U2C U131C,1.08
17,U3C A117U,1.02
18,U3A A52U,0.58
19,A4G U72A,0.22
20,A4G U72C,0.21
21,U3C U108C,0.04
22,A5G A11U,0.86
23,A5C A95G,0.99
24,U3C U132A,1.58

row,Variant,self-cleavage
1,A5G A86U,1.27
2,A5G A86G,0.63
3,A5G U97C,1.25
4,A5C A47G,1.1
5,U3C A126U,0.79
6,U3C A126G,0.58
7,U2C U103A,0.62
8,A4U A56G,0.98
9,U3C U102A,0.38
10,U3A U57C,1.14
11,A5C A33G,0.87
12,U2G A91G,1.16
13,A5U A23U,1.56
14,U3A A67U,0.46
15,A5G A55G,1.15
16,U3C U103C,1.12
17,U3C A114G,0.47
18,U3C C107G,0.09
19,U3A U127C,0.63
20,U3A U102C,1.99
21,U3C G74U,0.15
22,U3C G28U,2.64
23,A5G G29C,0.82
24,U3C A67G,0.97

row,Variant,self-cleavage
1,U2G A68G,0.43
2,A4G A36U,0.79
3,U3A A55C,1.31
4,A5G U131C,0.56
5,A5C A110G,0.33
6,U2G A59G,0.81
7,A5U A11G,1.49
8,A5C C17U,0.39
9,A5U A60G,0.99
10,A5U A60C,1.78
11,U3A A78G,0.14
12,A5C A56G,1.05
13,A5G U127C,0.8
14,A5G U127A,2.43
15,A5C A18G,1.02
16,A5G A92U,0.95
17,U3G U37C,1.52
18,A5U A33C,1.62
19,A5U A33G,0.69
20,U3G G41U,1
21,A4G C121A,2.03
22,U2C U120A,1.03
23,A5G U120G,0.39
24,U3C U131C,0.51

row,Variant,self-cleavage
1,U3A U130C,1.09
2,A5C U103C,1.39
3,U3C A60C,0.91
4,U2G U103C,0.85
5,A5G C113U,0.16
6,A4G A118G,1.01
7,U3C A92G,1.48
8,U3C A47U,0.68
9,U3C A47G,1.39
10,A5G A96G,1.21
11,U2G A11U,1.51
12,U3C A134U,0.67
13,U2G A78U,0.4
14,A5G A140U,1.38
15,A4G A114C,0.17
16,A5G U38G,1.02
17,U3C A59G,1.17
18,A4G U70A,1.14
19,A5G A66G,0.87
20,U2C U100C,1.61
21,A5G A135G,2.3
22,U2C U127A,2.05
23,U2C U127C,0.9
24,A4G U12C,0.58

row,Variant,self-cleavage
1,U3A A11G,1.03
2,A5G A63G,1.21
3,U3A A64C,1.33
4,U3C A111G,0.03
5,A4U A95G,1.65
6,U2G U39A,0.87
7,U3A A68G,2.27
8,A4G A13G,1.27
9,A4G G65C,1.18
10,A5G C107U,0.02
11,U3C A91U,1.11
12,U3C A91G,0.84
13,U3C A91C,0.84
14,U2C U26A,0.37
15,A5G U87C,0.88
16,U2G A96U,0.84
17,U3C U72C,0.25
18,A5U A55U,1.15
19,A4U A24G,0.76
20,U3C A125U,0.83
21,U3C A125G,0.74
22,A4G A5G,1.25
23,A5G G65A,0.9
